Experimental data from paper PMC7525815.

Target: Fig4-C486S-Citrine (human) (human) (UniProt Q92562)
Assay: co-IP

Sequence of UniProt Q92562 (Q92562 whole entry C486S): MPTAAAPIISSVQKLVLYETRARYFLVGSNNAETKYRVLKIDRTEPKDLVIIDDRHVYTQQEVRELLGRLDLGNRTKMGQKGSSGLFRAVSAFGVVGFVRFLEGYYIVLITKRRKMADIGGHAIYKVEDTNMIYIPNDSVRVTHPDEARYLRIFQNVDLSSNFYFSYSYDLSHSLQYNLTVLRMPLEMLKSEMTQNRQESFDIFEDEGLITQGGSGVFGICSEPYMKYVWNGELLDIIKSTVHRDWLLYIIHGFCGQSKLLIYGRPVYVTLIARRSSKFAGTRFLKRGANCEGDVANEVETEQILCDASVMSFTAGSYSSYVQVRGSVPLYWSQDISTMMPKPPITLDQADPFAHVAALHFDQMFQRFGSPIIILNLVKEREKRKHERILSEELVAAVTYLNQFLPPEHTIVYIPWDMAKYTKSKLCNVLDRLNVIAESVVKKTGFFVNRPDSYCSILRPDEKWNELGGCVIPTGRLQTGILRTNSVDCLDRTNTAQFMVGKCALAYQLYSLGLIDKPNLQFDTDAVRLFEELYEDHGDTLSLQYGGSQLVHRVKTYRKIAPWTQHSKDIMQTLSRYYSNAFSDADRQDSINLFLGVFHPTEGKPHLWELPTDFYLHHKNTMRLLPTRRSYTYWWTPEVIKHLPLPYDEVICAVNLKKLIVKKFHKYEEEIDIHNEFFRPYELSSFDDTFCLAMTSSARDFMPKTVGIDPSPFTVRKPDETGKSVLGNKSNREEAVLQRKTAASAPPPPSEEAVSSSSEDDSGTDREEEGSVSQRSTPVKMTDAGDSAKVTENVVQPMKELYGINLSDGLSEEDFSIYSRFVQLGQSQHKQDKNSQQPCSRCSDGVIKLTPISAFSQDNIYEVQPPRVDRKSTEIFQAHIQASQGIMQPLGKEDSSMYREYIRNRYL

fold PIKfyve association over wild-type Fig4: 9.27 fold
Substance: PIKfyve, Q9Y2I7 1-2098
